Assay [1] addresses T1, mouse SPNS2 (mouse, UniProt Q91VM4 1-549).
T1 sequence: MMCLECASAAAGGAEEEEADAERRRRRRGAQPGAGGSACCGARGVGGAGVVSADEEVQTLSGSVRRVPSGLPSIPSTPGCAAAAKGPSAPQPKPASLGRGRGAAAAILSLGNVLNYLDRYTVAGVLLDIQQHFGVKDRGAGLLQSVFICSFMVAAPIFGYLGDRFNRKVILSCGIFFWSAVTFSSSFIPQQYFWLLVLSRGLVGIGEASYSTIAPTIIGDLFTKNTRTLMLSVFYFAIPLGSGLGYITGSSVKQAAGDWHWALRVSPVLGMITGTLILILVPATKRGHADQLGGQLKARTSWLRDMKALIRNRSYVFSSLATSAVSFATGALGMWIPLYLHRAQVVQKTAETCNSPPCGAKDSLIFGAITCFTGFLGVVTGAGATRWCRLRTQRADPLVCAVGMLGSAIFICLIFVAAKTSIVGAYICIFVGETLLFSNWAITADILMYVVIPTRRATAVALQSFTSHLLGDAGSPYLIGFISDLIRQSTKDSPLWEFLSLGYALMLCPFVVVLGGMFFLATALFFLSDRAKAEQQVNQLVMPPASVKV
The experiment in a line: cell-based or functional assay.

Assay [2] has as its target T2, human SPNS2 (human, UniProt Q8IVW8 1-549).
T2 sequence: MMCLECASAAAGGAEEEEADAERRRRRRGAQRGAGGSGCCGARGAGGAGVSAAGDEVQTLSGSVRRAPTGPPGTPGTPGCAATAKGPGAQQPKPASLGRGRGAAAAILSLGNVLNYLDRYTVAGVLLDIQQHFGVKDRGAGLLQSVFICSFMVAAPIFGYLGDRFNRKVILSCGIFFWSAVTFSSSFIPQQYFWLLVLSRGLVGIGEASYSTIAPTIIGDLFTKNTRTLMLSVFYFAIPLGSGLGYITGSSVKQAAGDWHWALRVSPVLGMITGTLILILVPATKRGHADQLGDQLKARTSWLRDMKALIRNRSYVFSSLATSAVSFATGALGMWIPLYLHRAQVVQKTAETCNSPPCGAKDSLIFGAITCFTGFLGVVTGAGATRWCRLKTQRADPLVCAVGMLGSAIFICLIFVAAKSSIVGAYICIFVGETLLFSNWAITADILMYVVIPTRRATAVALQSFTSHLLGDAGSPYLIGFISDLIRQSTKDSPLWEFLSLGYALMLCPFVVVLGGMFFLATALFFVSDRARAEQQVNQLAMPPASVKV
The experiment in a line: cell-based or functional assay.

The target of assay [3] is T1, mouse SPNS2. The experiment in a line: Cell ELISA. How it is done:
(§1) Human and mouse SPNS2 and human SphK1 double stable expression Flp-in 293 cells were added to a poly D lysine coat 96-well plate (Corning, 356461) in a density of 1×10⁵ cells/well and was cultivated overnight, and then the culture medium was removed. An anti-SPNS2 antibody solution was adjusted into 20 μg/mL using 0.2% FBS/3% BSA/PBS, and 0.2% FBS/3% BSA/PBS (60 μL) was added to the antibody diluted solution (20 μL) to prepare seven-step diluted solutions by four fold serial dilution. Each diluted solution of the anti-SPNS2 antibody was added in a volume of 30 μL/well, and reacted for about one hour at room temperature. The antibody solution was removed, and the residue was washed with PBS containing 0.05% Tween 20 (PBS-T) two times, and fixed for about ten minutes at room temperature using 10% buffered formalin (Mildform (Trade mark) 10NM, Wako). After washing with PBS-T one time, a 5000-fold diluted solution of anti-rat IgG antibody HRP conjugate (Southern Biotech, 3030-05) in 0.2% FBS/3% BSA/PBS was added to each well (30 μL), and reacted for about one hour at room temperature. After washing with PBS-T four times, a substrate (TMB; 3, 3′, 5, 5′-tetramethylbenzidin) was added to each well (100 μL) to initiate the reaction. After 20 minutes, 2N sulfuric acid was added to each well (100 μL), and absorbance at 450 nm and 550 nm was measured. […] Each antibody bound to human SPNS2 and mouse SPNS2.
On the technique in general: An ELISA detects its analyte on a solid surface through an enzyme-linked reagent.

In assay [4] the target is T2, human SPNS2. The assay is described as follows: Cell ELISA. How it is done: as §1
The target in assay [5] is T3, Mutant 4 of human SPNS2 (FLAG tag inserted in extracellular loop 11) (human, UniProt Q8IVW8 1-549).
T3 construct: on HEK293 cells; also called extracellular loop 11 mutant
T3 sequence: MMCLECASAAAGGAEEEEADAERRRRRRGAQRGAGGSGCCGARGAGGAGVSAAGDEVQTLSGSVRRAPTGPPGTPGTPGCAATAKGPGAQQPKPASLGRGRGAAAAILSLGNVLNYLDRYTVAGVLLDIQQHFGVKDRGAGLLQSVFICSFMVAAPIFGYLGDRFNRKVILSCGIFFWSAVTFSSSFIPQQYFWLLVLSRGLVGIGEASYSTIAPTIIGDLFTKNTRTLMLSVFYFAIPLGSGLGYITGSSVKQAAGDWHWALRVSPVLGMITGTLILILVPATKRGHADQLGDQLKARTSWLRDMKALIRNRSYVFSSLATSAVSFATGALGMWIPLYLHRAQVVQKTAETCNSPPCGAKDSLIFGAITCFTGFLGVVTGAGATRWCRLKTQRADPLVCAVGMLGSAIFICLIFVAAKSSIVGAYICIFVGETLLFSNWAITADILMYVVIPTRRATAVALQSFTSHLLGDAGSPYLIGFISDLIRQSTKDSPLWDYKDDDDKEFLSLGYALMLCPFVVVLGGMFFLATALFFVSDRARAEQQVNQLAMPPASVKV
The experiment in a line: flow cytometry, FLAG-insertion mutant. The protocol: After the lipofection, the HEK 293 cells cultivated overnight were recovered from the culture dishes, and reacted with a cell staining buffer (BioLegend, 420201) containing an anti-FLAG antibody (Sigma-Aldrich, F1804) and an anti-SPNS2 antibody each in a volume of 20 μg/mL for 30 minutes at room temperature. After washing with a cell staining buffer one time, the anti-FLAG antibody was detected with an anti-mouse IgG-Alexa 647 conjugate antibody, and the anti-SPNS2 antibody was detected with an anti-rat IgG-FITC conjugate antibody with flow cytometer BD LSR Fortessa (Becton Dickinson). The binding ability to each mutant was evaluated with the ratio of the FITC-positive cell rate to the Alexa 647-positive cell rate. In Table 7, symbol (+) indicates a ratio of less than 0.1, symbol (±) indicates a ratio of 0.1 or more and less than 0.5, and symbol (−) indicate a ratio of 0.5 or more.
On the technique in general: A flow cytometer gives signals particle by particle.

B1: 33-0503E (antibody, IgG2b, V domains shown)
VH: EVQLVESGGGLVRPGGSMKLSCGASGFIFDNYYMTWVRQAPTKGLEWVASISSSGGNTYYRDSVRGRFTISRDNAGNTLSLQMGSLRAEDTATYHCAKEGYRGRYFDYWGQGVMVTVSS
VL: QVVLTQPNSVSTNLGSTVKLSCKRTTGNIGSNYVNWYQQHEGRSPTTMIYRDDERPDGVPDRFSGSIDRSSNSALLTINNVQTEDEAEYFCQSYSSGIIFGGGTKLTVL
With B1, the “pIC50, S1P transport inhibition (S1PR3 Ca2+ FLIPR bioassay)” value was 7.5 pIC50 (M) in the assay with mouse SPNS2 [1] and 7 pIC50 (M) in the assay with human SPNS2 [2]. Also, the Emax came out at 2.2 absorbance with mouse SPNS2 [3] and 2.03 absorbance with human SPNS2 [4]. For the same molecule, the pEC50 with mouse SPNS2 [3] was 7.66 pEC50 (M); in the assay with human SPNS2 [4], 8.12 pEC50 (M). Further, in assay [5], the “FITC+/Alexa 647+ cell rate ratio” value was at least 0.5 ratio.

B2: 49-0703G (antibody, IgG2b, V domains shown)
VH: EVQLVESGGGLVQPGRSMKLSCAASGFTFSNHYMAWVRQAPTKGLEWVASISTGGGNTYYRDSVKGRFTISRDNAKSTLYLQMDSLRSEDTATYYCARQDYSNYMGGFAYWGQGTLVTVSS
VL: QFVLTQPNSVSTNLGSTVKLSCKRSTGNIGNNYVNWYQQYEGRSPTTMIYRDDERPDGVPDRFSGSIDRSSNSALLTINNVQTEDEADYFCQSFSNGMFIFAGGTQLTVL
For the molecule B2, the “pIC50, S1P transport inhibition (S1PR3 Ca2+ FLIPR bioassay)” value in the assay with mouse SPNS2 [1] is 7.3 pIC50 (M); in the assay with human SPNS2 [2], 7 pIC50 (M). The Emax with mouse SPNS2 [3] turned out to be 1.67 absorbance; in the assay with human SPNS2 [4], 1.77 absorbance. For the same molecule, the pEC50 with mouse SPNS2 [3] is 8.09 pEC50 (M); with human SPNS2 [4] it was 8.42 pEC50 (M). Also, in assay [5], the “FITC+/Alexa 647+ cell rate ratio” value was at least 0.5 ratio.
